Source: patent publication US20230183661A1, “BICOMPATIBLE PEPTIDEBIOCOMPATIBLE PEPTIDES FOR INHIBITION OF AGGREGATION OF B-AMYLOID PROTEIN” (Catholic University Industry Academic Cooperation Foundation, priority 2017, published 2023)

Target: β-amyloid (Aβ) overexpressed in nerve cells (UniProt P05067)
Experiment: Co-IP from N2a cells, relative score

- Binding strength with β-amyloid: 1
Binder: ATKAVCVLKGDGPVQGIINFEQKESNGPVKVWGSIKGLT [Peptide 4 (β 1-3 fragment of SOD1)]
